Results: patent US20250320296A1 (published 2025)

Tests used:
[1] = molecular target: T1, human PD-L1 on CHO cells (human, UniProt Q9NZQ7 19-290); assay: FIG. 4: Octet avidity curves and FACS on CHO-PD-L1 cells
T1 construct: also called CHO-PD-L1 cells
Protocol: (§1) Antibody Activity. Varying concentrations of PD-L1 antibodies, with human IgG1 backbones, were added to CHO cells expressing either human or murine PD-L1 (CHO-PD-L1 cells). Binding was detected by addition of anti-human IgG1 secondary antibody conjugated to phycoerythrin. FACS analysis was performed, detecting phycoerythrin to determine fluorescence activity at a variety of antibody concentrations. EC50 was calculated using GraphPad Prism® software.

[2] = molecular target: T2, murine PD-L1 on CHO cells (murine, UniProt Q9EP73 19-290); assay: FIG. 4 legend: Octet avidity curves and FACS on CHO-PD-L1 cells
T2 construct: whole, on cells; also called CHO-PD-L1 cells
Protocol: as §1

T2 sequence (Q9EP73 19-290): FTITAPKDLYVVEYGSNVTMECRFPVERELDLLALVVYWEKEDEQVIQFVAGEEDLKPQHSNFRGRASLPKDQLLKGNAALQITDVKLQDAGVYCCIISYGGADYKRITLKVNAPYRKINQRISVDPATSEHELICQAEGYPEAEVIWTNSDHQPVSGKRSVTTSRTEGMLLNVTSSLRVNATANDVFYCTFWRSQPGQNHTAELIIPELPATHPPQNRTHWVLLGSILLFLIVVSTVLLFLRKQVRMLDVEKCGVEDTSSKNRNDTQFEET
T1 sequence (Q9NZQ7 19-290 limits assumed): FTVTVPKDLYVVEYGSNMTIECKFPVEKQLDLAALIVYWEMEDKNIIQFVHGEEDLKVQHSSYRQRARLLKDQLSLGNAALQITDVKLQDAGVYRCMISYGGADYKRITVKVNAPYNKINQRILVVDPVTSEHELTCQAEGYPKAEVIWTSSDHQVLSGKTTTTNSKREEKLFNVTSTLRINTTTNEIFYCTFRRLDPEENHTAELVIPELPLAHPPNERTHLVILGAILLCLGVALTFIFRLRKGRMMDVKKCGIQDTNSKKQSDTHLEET

binding result [1]: binds
binding result [2]: binds
B1: ADI-20799 (antibody, human IgG1, V domains shown)
VH: QVQLVQSGAEVKKPGASVKVSCKASGYTFTGVYMHWVRQAPGQGLEWMGGIFPIGGTANYAQKFQGRVTITADESTSTAYMELSSLRSEDTAVYYCARDRTSGALYWGQGTLVTVSS
VL: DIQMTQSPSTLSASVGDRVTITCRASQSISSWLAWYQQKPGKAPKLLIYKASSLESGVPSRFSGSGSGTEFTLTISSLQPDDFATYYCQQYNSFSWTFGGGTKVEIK
